{"source": "paper PMC60004", "about": "(BMC Biochemistry, 2001)", "binders": {"B1": {"name": "Bacillus thuringiensis Cry1Aa toxin (trypsin-activated, wild type) (domain or fragment)", "chain": "not shown"}}, "key": {"[1]": {"molecular_target": "Bombyx mori aminopeptidase N, native, 115-kDa (115-120 kDa) Cry1Aa-binding receptor (Bombyx mori (endogenous in larval …))", "test": "SPR"}, "[2]": {"molecular_target": "Bombyx mori cadherin-like receptor BtR175, native, 175 kDa (Bombyx mori (endogenous in larval …))", "test": "SPR"}}, "data": [{"binder": "B1", "values": [{"measurement": "Kd", "setting": "[1]", "value": 75, "unit": "nM"}, {"measurement": "koff", "setting": "[1]", "value": 0.0015, "unit": "s⁻¹"}, {"measurement": "kon", "setting": "[1]", "value": 20000, "unit": "M⁻¹ s⁻¹"}, {"measurement": "Kd", "setting": "[2]", "value": 2.6, "unit": "nM"}, {"measurement": "koff", "setting": "[2]", "value": "3.3e-05", "unit": "s⁻¹"}, {"measurement": "kon", "setting": "[2]", "value": "13000 ± 6.1", "unit": "M⁻¹ s⁻¹"}]}]}
